Article PMC7095019 (Nature, 2012)

B1: CR6261 germline variant sCDR H2/sCDR H3, soluble IgG (antibody, V domains shown)
VH: QVQLVQSGAEVKKPGSSVKVSCKASGGTFSSYAISWVRQAPGQGLEWMGGIIPIFGTTKYAPKFQGRVTITADESTSTAYMELSSLRSEDTAVYYCAKHMGYQVRETMDVWGKGTTVTVSS
VL: QSVLTQPPSVSAAPGQKVTISCSGSSSNIGNNYVSWYQQLPGTAPKLLIYDNNKRPSGIPDRFSGSKSGTSATLGITGLQTGDEADYYCGTWDSSLSAYVVFGGGTKLTVL
B2: CR6261 germline variant sCDR H3, soluble IgG (antibody, V domains shown)
VH: QVQLVQSGAEVKKPGSSVKVSCKASGGTFSSYAISWVRQAPGQGLEWMGGIIPIFGTANYAQKFQGRVTITADESTSTAYMELSSLRSEDTAVYYCAKHMGYQVRETMDVWGKGTTVTVSS
VL: QSVLTQPPSVSAAPGQKVTISCSGSSSNIGNNYVSWYQQLPGTAPKLLIYDNNKRPSGIPDRFSGSKSGTSATLGITGLQTGDEADYYCGTWDSSLSAYVVFGGGTKLTVL
B3: CR6261 germline variant sCDR H2, soluble IgG (antibody, V domains shown)
VH: QVQLVQSGAEVKKPGSSVKVSCKASGGTFSSYAISWVRQAPGQGLEWMGGIIPIFGTTKYAPKFQGRVTITADESTSTAYMELSSLRSEDTAVYYCAKHMGYQLRETMDVWGKGTTVTVSS
VL: QSVLTQPPSVSAAPGQKVTISCSGSSSNIGNNYVSWYQQLPGTAPKLLIYDNNKRPSGIPDRFSGSKSGTSATLGITGLQTGDEADYYCGTWDSSLSAYVVFGGGTKLTVL
B4: CR6261 germline variant sCDR H1/sFR3, soluble IgG (antibody, V domains shown)
VH: QVQLVQSGAEVKKPGSSVKVSCKASGGPFRSYAISWVRQAPGQGLEWMGGIIPIFGTANYAQKFQGRVTITADDFAGTVYMELSSLRSEDTAVYYCAKHMGYQLRETMDVWGKGTTVTVSS
VL: QSVLTQPPSVSAAPGQKVTISCSGSSSNIGNNYVSWYQQLPGTAPKLLIYDNNKRPSGIPDRFSGSKSGTSATLGITGLQTGDEADYYCGTWDSSLSAYVVFGGGTKLTVL
B5: CR6261 germline variant sFR3/sCDR H3, soluble IgG (antibody, V domains shown)
VH: QVQLVQSGAEVKKPGSSVKVSCKASGGTFSSYAISWVRQAPGQGLEWMGGIIPIFGTANYAQKFQGRVTITADDFAGTVYMELSSLRSEDTAVYYCAKHMGYQVRETMDVWGKGTTVTVSS
VL: QSVLTQPPSVSAAPGQKVTISCSGSSSNIGNNYVSWYQQLPGTAPKLLIYDNNKRPSGIPDRFSGSKSGTSATLGITGLQTGDEADYYCGTWDSSLSAYVVFGGGTKLTVL
B6: CR6261 germline variant sCDR H1/sCDR H2/sFR3, soluble IgG (antibody, V domains shown)
VH: QVQLVQSGAEVKKPGSSVKVSCKASGGPFRSYAISWVRQAPGQGLEWMGGIIPIFGTTKYAPKFQGRVTITADDFAGTVYMELSSLRSEDTAVYYCAKHMGYQLRETMDVWGKGTTVTVSS
VL: QSVLTQPPSVSAAPGQKVTISCSGSSSNIGNNYVSWYQQLPGTAPKLLIYDNNKRPSGIPDRFSGSKSGTSATLGITGLQTGDEADYYCGTWDSSLSAYVVFGGGTKLTVL
B7: CR6261 germline variant sCDR H1/sCDR H2, soluble IgG (antibody, V domains shown)
VH: QVQLVQSGAEVKKPGSSVKVSCKASGGPFRSYAISWVRQAPGQGLEWMGGIIPIFGTTKYAPKFQGRVTITADESTSTAYMELSSLRSEDTAVYYCAKHMGYQLRETMDVWGKGTTVTVSS
VL: QSVLTQPPSVSAAPGQKVTISCSGSSSNIGNNYVSWYQQLPGTAPKLLIYDNNKRPSGIPDRFSGSKSGTSATLGITGLQTGDEADYYCGTWDSSLSAYVVFGGGTKLTVL
B8: CR6261 germline variant sCDR H1, soluble IgG (antibody, V domains shown)
VH: QVQLVQSGAEVKKPGSSVKVSCKASGGPFRSYAISWVRQAPGQGLEWMGGIIPIFGTANYAQKFQGRVTITADESTSTAYMELSSLRSEDTAVYYCAKHMGYQLRETMDVWGKGTTVTVSS
VL: QSVLTQPPSVSAAPGQKVTISCSGSSSNIGNNYVSWYQQLPGTAPKLLIYDNNKRPSGIPDRFSGSKSGTSATLGITGLQTGDEADYYCGTWDSSLSAYVVFGGGTKLTVL

Each binder was assayed against H1 A/New Caledonia/20/1999 haemagglutinin, wild-type trimeric protein (Influenza A virus A/New …, UniProt Q6WG00, strain) (assay: ELISA).

First: B1
Second: B2
The “ELISA endpoint dilution titre” value of the first is lower: 0.15 µg/mL for the first, > 100 µg/mL for the second.

Going from B3 to B4, the “ELISA endpoint dilution titre” value falls from > 100 µg/mL to 0.00133 µg/mL.

Compared with B5, B6 is lower in “ELISA endpoint dilution titre” value: > 100 µg/mL for the first, 0.00133 µg/mL for the second.

B7 and B8 are the same in “ELISA endpoint dilution titre” value: 0.15 µg/mL for the first, 0.15 µg/mL for the second.

B2: no binding (tested: >100 µg ml^-1).
B3: no binding (tested: >100 µg ml^-1).
B5: no binding (tested: >100 µg ml^-1).
